A short description of this data set: soluble on expression in E. coli; label from the status in PepcDB or PDB records.
Turning to “MGSDKIHHHHHHMNLTELMERIPHLREILNIVREAFKDYDDPAHDISHTFRVMENASEIASREKCDLQKAIIAALLHDIKRPHEALTGVDHAESGAEYASGLLPTMGFDISFVAEVSKAIRSHRYSGGLTPTSLTGKILQDADRLDAIGAVAIARVFSYSGKTGTPLHSLQFSPRSSYSGNSRSSINHFHEKILKIRPETFWTETARKMAEDRYSFVVEFVQRFLAEWGQI”, the “soluble on expression in E. coli” value is recorded as “not soluble”.

Turning to “MSLASKPSLLFVDDSKVMRLAADKMLGREFRVEVAENGLQAWTMVCHNPSISVVFSDLAMPEMDGFALLKKIRTSEDEGVAGLPVIIVTGAENDDEARAEALRLGGTDFISKPFNSTDLLARARAHANYQNERKEFAKQAMIDPLTRLGNRRYLLHRLRQELALAARQQYRLSVVQLEICQFNQLFVQLGKKRTDMVLLKLAQSLRGVIRKEDSLARSSVAQFTVLLPSAGPNGAKRFVERALKVSERLAFQFRGKVQRLPLTVIIHTPAVHAGLAPRQVQLALEEQLKQARKLGPGTVLSDDADTTLSVDESAPILTIEQALVLLRAGKPRAVVSALPDLERQLAPLLELMKRSASDQEGHHHHHH”, the “soluble on expression in E. coli” value is given as “not soluble”.

Regarding “MKYNREKLKNKVCLAIIGMPHGIKGDVLLKILSSEPQRLKTYGTLYDDRGHSYEIVMLRMQKKNAIVHFKGVEDRSAAEALRGIHLYVARDQLVDDLTEDEFYQVDLIGLRVQDCTGRILGEVSGLFNFGAGDLLEMRLNTGKTVLIPFSKAAVLEVCIASGFLVVDPVAAGLSDGGENTLEHHHHHH”, the “soluble on expression in E. coli” value is recorded as “soluble”.

In the case of “MRVLIVKTSSMGDVLHTLPALTDAQQAIPEIKFDWVVEEGFAQIPSWHAAVERVIPVAIRRWRKAWFSAPIKAERKAFREALQAENYDAVIDAQGLVKSAALVTRLAHGVKHGMDWQTAREPLASLFYNRKHHIAKQQHAVERTRELFAKSLGYSKPQTQGDYAIAQHFLTNLPTDAGEYAVFLHATTRDDKHWPEEHWRELIGLLADSGIRIKLPWGAPHEEERAKRLAEGFAYVEVLPKMSLEGVARVLAGAKFVVSVDTGLSHLTAALDRPNITVYGPTDPGLIGGYGENQVECRSTSMSLADLPAQTVFQNLNLEIITNKLTSEIR”, the “soluble on expression in E. coli” value was “not soluble”.

“MNRSRLLLLGAEAVAQGAIDAGLSGVYAYPGTPSTEITEYIQRSAPARQSGIRSAWSANEKTAYEAALGMSYAGKRSLVCMKHVGLNVAADAFMNSAITGVNGGLVLAVADDPSMHSSQNEQDSRVYGRFAMVPVLEPASQQELYDAMFHAFELSEAVRLPVIMRMTTRLSHSRAGVELKASLEQNPLSAE”: the “soluble on expression in E. coli” value is given as “not soluble”.

On to “MGSDKIHHHHHHEDDNIRPFGKDVEAGAPGVVSEIKVKNIPGGAVISYQLPDNPDIMYVRARYKVGQGKEMEARASVYANELTVNGFGDMNEHEVELSCVDRMENEGATTVAVVTPLKPSVLTTFESLEVNATFGGVYVNFKNPEKASLSIHVVTTDSLNQPYEAHVQYTQAEKGPFYVRGFKAEERMFDIYVVDRWGNSSDTLYNVLTPYEETRLNKKLFYPYILPNDVACNAWGGNLAYAWNDDYTPALFVHSPGGDTFPMWFTFDMGVTAKLSRYKFYHLFMEEHAFQRGNLKTWEVWGRTDTPPADGSWDGWTKLMDCESHKPSGLPVGQHTAEDWEYLQAGEDFEFPAEAPPVRYIRFKVLETWGGMDFIHFTEFTFWGNVISNN”, for which the “soluble on expression in E. coli” value is reported as “not soluble”.

Take “MSDYSAKPSGSLARIGDYDLSSDDSDQNDEDETLIASKTIQTGAVQVNDIAVAEASPAETDAKSSASPVSGPEPPTSAVVENRDLDEFKKESGSNDDKQEEINEDKDSNEETVFQQTESGSADVVDKTDVKQKDSDSSADDDHSHSKSGSVHSPQKPQGSTTPCSVQSPASPVGDEQAVKMEEVEEPIVASEEVPDKKPESVKESTDSESSGSEHGFEKMDTAEKVEDECNDDEVAASNGTEEPEPGDKAADTVNPWETPRQEPVDGVVQPRTEPPAGKPTRHTNCLDFVLFTVVKDALKHKHSWPFQLPVDAIKLEIPEYHNIVNTPMDLRTIEKRLRNLYYWCAEDAIKDLNTLFDNCKKFNDRNDDIYIMCENIEGVVQRGLEWMPSEEKPADLADHHRRGMFSASTPSGKTKGPKQRGRKSTRGRKKTSLPRGASTFKDESVDDNNDDESSKVDSINFDDDDDTATEKDAESRAESVQPEVVNEEPKPSTSQPPSKKRKAENGEPAVAVKIATPATPVAAHPQEETPRRKNPNTLIEWKHLVPRWQGKIPEWQKFCSKLLNEIHSVKNKGFAQVFYLPVDPIKLKIYDYLEVITNPMDLQTIKKKLDFKQYAEPEEFVHDINLMVDNCCKYNPKGSPAHSNALELRSFFEQRWKLFPRPGVDPIIADSYINQNLVVNTDLIEDERINSYLSAVKAEEKKCAEKLEQLRSMSEGLYTIAMQRREAKLAGNTAPALAQNQLSQLEGLGISIKSTPMMIPELISPALSVRSSSRAPVPKIIDDIGPSPIKARKISKPRASMASNVSVPYTPTGNPRGRKPKKSGRPKKNIYSPATVSERISQQPPFEVTPYVSIYGRKVVGTNDKIELSERMASIPQMYITPILRIIQIGHHNTGKTITSLRSLCEEEIDFNDVSDDLVIELLDYLEMIQKDKAKAEQVRQELEVKAKFYGFEAYDNKLGTIPKTRNMPPPLQHRMRSDSPSPSASRTGNQSSDSDSASDDSSDDEPSRSNSNVAGPRRALELSGNSSSASTPAGPSKAQPAVVRPSSKSVASKPAYTKRTLSESSSSSDSNGSSSDSSDSDSEPS”: the “soluble on expression in E. coli” value is “not soluble”.

Turning to “MDVAGEKQQRKGEAIARIEAEKNAYTVAQLADEYFERMIAGRWKHPNIVRSRIEKDIKPAIGSLKVEDVKPRHIDDVLKAVMKRGAPSIANDTLRWLKRMFNYAIKRHIIEYNPAAAFLEHHHHHH”, the “soluble on expression in E. coli” value is on record as “not soluble”.

“MTTTTLTVPFRFDVVGSLLRPASLKKAHEQLAAGTITRDQELEIQHTEIKRVVAEQVKLGLKAVTDGEFSRSWWHLDFLWGLTGVGKYDYHQSYKFKGDHTRTDNAELIGKVAYNPDHPFFAAFEYLQSIVPAGVLAKQTIPSPTMLFRDNRSDNWTKFYDSWDAYLNDLAQAYHDTIQHFYDLGCRYIQLDDTTWAFLISKLNDPEADHAAYTKWATDAVTVINAALADLPSDLTVTTHICRGNFKSTYLFSGSYDVVAPYLGQLNYDGLFLEYDNERAGGFEALDQIWNHDDHKRIVLGLVTSKFPELEKTTVIKERVQAATTKVPLRNLALSTQCGFASTEEGNQLTEAQQWAKLALVIGTAKEVWSEALEHHHHHH”: the “soluble on expression in E. coli” value is given as “not soluble”.

For the sequence “MSIRSWPAAERPRERLLELGAASLSDAELLAIFLRTGVAGKSAVDLARHLLNQFDGLRSLLDADQPAFTAQLGLGPAKFAQLQAVMEMARRHMAESLRRDSALENPAQVRNYLKAQLRHEPHEVFACLFLDNKHRVMTFEILFRGTINASYVHPRQVVKRALAHNAASLILCHNHPSGITTPSRSDIDLTKRLKEALKLVDVHVLDHVIVGDGEPLSMVEKGLM”, the “soluble on expression in E. coli” value is “not soluble”.

Turning to “PSGFPQNLHVTGLTTSTTELAWDPPVLAERNGRIISYTVVFRDINSQQELQNITTDTRFTLTGLKPDTTYDIKVRAWTSKGSGPLSPSIQSRTMPV”, the “soluble on expression in E. coli” value was “soluble”.

Regarding “MAMNLRKNQAPLYIKVHEIDNTAIIVNDGGLPKGTVFSCGLVLEEDVPQGHKVALTDLNQGDEIVRYGEVIGFADETIKRGSWIREALVRMPAP”, the “soluble on expression in E. coli” value is given as “not soluble”.

Regarding “GSMHEYSVVSSLIALCEEHAKKNQAHKIERVVVGIGERSAMDKSLFVSAFETFREESLVCKDAILDIVDEKVELECKDCSHVFKPNALDYGVCEKCHSKNVIITQGNEMRLLSLEMLAE”, the “soluble on expression in E. coli” value was “soluble”.

In the case of “MSLGEAEARVVLNMNTGWAFHRGEVESGGQPGLDDSGWIAAIIPHIMQLEKKHCGGDIIYDGVGWYRRTFRVPSQYKDKQIKISFEGVMNACEVYLNGQKISAHRGGYVGFVTDITTRINWDRDNLLAVRVSAEYDPLTPPGKPQAGMDFYYYSGIYRDVEMVISDPLHITHALEEEEVAGGGIFVTYPVVGKEKAVTHVKAHVRNEGKRKRKAQLRTQLIDKSGKIVACQLTPFRLSAGEAIHLEQNLEIVHPSLWHPYDPNLYTLQNEIVENGKVVDCHTESIGIRTIAYTRDGGFYINGESLYLRGANRHQAFAHIGDAAANSMQERDVIDLKRGGCNAVRAAHYPQDPAFLAACDKYGLLVVECIPGWQYFKNDSTFISRLYEVGKQMIRRDRNHPSVILWETALNESRYPAEIARNLYAIAHIEYPGDQMYTAGDYFGHADRVDCFDVFYKQVSRFPKDGDVMSNYPEDQIAVKPLFCREWGDGVGEKPRVSLMENEEEQLKQCRGRFLQLNGHGYFDWCMLDANPRMGGHFLWSYNDYARGAEQETMFCGIVDINRYPKFSYYMMQSMRDKEISQPGLYDGPMVFIASQNTASRYVSSVNEITVFSNCDEVRLFRNHHLIGKQMRKERTPLYRSIVEKGGSPCYVFNAGTYEAGELVAEGIVDGKVVATHSVRTPEQPRQVKIWLKEENIQPVADGSDMIPVYFKVCDSNGTLVNTSDVRIHISVSGEGSLIGDGIERIGINPQLVEGGVGYALIRTTCRPGKIHISVTADGLRGDTREIVTRRYDGEGHHHHHH”, the “soluble on expression in E. coli” value is “not soluble”.

With “MQEIGILENLQKSLALKEGMLSYEMLGKSLSYNPYLPRVIPQTKDCVFVTPDEVLEKLLKENTHTDCVIVNFKGLYEIGAPSVFNLEVLGLLRRHASSLIVHQDLFISHYQLLESLVQGSDGVVLDEELLKEDLKGMVEFSWRLGLSVFVETHKQDYTHLKDLGVLGVLEKVPHSQNQKRIVFLD”, the “soluble on expression in E. coli” value is given as “not soluble”.

With “MGSDKIHHHHHHMIRFHIQADSDIPASTQLYNQIHFAIASRQYPPGHKLPSTRQLAMQTGLHRNTISKVYRLLEEDGVVEAQAGSGIYVRGGNDPRETAKSQRLRKQYPDIDQQIRDHIDTLLQQGCSLAEIRELFLAEVDWRLRCSASVLVTAPLQDLGAAELMYRELSQALGVPVEVVPLEELGAILKQKDSGTVVTSHYFFQDAEAITASLGARTIALDLYDYREELSFLSQQKEGSCIGIVSISPGILRAAEIIIHSLRGEALLIMSCQPNDQTKLEAMLRSASVIICDQSSIDNVKQRVSAIRDDLIRLPRLLCSKSYISEASIALLKRELGLN”, the “soluble on expression in E. coli” value is “not soluble”.

Regarding “MKDWLDEIHWNADGLVPAIAQDHETGRVLMMAWMNREALALTASENRAIYWSRSRGKLWRKGEESGHVQKLHELRLDCDADVVILMVEQVGGIACHTGRESCFYRVFENGAWKTVDPVLKDPDAIYEHAGHHHE”, the “soluble on expression in E. coli” value is on record as “not soluble”.

For the sequence “MLTLSFATGTEPNKWFTRFEERTDHGGLRTLSDDDPLSLLVDATADLALVRLPDPRMDNDDTVHVVELYQESMGVALPKEHTLTLLDVVEPSDLDGEIINYITPPSLEVDVAAVRAQLQMVAANVGVVIAPRPLLKVLSGKLVEHREFSDPQRYGQARTRIALVWKKERDGEDIQDFVGIAKGRTVQSSRQSNAKKVSAREKTLAKQKRRKEAGKKPVRKGGRRKR”, the “soluble on expression in E. coli” value is listed as “not soluble”.

As for “MLKGQRTWVFANKPAIIATAAVGGPFEANGRLAEDFDLLHEDLWLGEESYEKAHRVLMEEAAFQAMEKAGLEKEKVQFLIAGDLINQMTPTSFAARTLGMPYLGVFGACSTSMEGLALSAFITNYGGADYILTGASSHNAAVEKQFRYPTEYGGQKPPTAQWTVTGAGVAIVSPKGDGPRVTAATIGRVVDMGLADPFNMGGAMAPAAVDTIEAHLRDMQIDASYYDLIVTGDLGRIGRQVSLDLLRQHGIDIDEECYQDCGLLIYRDGQPVLSGASGAACSAVVVYGHLIKRMRRGELKRILAVATGALLSPLSFQQNETIPCIAHAVAIEYGGEA”, the “soluble on expression in E. coli” value is reported as “not soluble”.

On to “MNTFVFLPLAFFVLLESFEAQEPPGPTARLNMLDNYMKRLNLTDIHFSDPGGIVKVDTVVNKYQPLTEEEIIRKMKKTVNDTAYDIANGKDPDLIEKLDKKTVQLPKPIRSRPQF”, for which the “soluble on expression in E. coli” value is listed as “not soluble”.
